Results published in patent US20150056630A1, “DNA CONTROLLING MIR-140 EXPRESSION, AND SCREENING METHOD OF DRUGS USING SAID DNA” (NATIONAL CENTER FOR CHILD HEALTH AND DEVELOPMENT, priority 2012, published 2015).

Columns and labels:
[1] = molecular target: T1, Sox9 (recombinant, rSox9) (UniProt Q04887 Q04887:1-507); experiment: EMSA; 0.1 ug rSox9, poly dG-dC, 50 mM KCl, room temperature; supershift with anti-Sox9; conditions: label: 32P
Method: (§1) To a reaction solution containing 20 mmol/L of HEPES (pH 7.9), 10% of glycerol, 50 mmol/L of KCl, 0.05% of NP-40, 0.5 mmol/L of EDTA, 0.5 mmol/L of DTT, 1 mmol/L of PMSF and 0.25 μg of Poly dG-dC was/were appropriately added 0.1 μg of a recombinant Sox9 (rSox9) and/or an anti-Sox9 antibody (manufactured by Millipore Corporation) followed by incubating at room temperature for 30 minutes. After that, the above RI-labeled probe was added, incubated at room temperature for 30 minutes and subjected to 4% polyacrylamide gel electrophoresis. After the electrophoresis, RI was detected using FLA-7000 (manufactured by Fujifilm) which is an image analysis apparatus.

[2] = molecular target: T1, Sox9 (recombinant, rSox9); experiment: EMSA; right-side half-site mutated; shift disappeared; conditions: label: 32P
Method: as §1

[3] = molecular target: T1, Sox9 (recombinant, rSox9); experiment: EMSA; left-side half-site mutated; shift still observed; conditions: label: 32P
Method: as §1

[4] = molecular target: T1, Sox9 (recombinant, rSox9); experiment: EMSA; both sides mutated; shift disappeared; conditions: label: 32P
Method: as §1

[5] = molecular target: T2, recombinant Sox9 (rSox9) (Homo sapiens, UniProt P48436); experiment: Electrophoretic mobility shift assay (EMSA), Sox9 binding of RI-labeled probes; conditions: for shift of the band: incubation with rSox9
T2 sequence (P48436 1-509): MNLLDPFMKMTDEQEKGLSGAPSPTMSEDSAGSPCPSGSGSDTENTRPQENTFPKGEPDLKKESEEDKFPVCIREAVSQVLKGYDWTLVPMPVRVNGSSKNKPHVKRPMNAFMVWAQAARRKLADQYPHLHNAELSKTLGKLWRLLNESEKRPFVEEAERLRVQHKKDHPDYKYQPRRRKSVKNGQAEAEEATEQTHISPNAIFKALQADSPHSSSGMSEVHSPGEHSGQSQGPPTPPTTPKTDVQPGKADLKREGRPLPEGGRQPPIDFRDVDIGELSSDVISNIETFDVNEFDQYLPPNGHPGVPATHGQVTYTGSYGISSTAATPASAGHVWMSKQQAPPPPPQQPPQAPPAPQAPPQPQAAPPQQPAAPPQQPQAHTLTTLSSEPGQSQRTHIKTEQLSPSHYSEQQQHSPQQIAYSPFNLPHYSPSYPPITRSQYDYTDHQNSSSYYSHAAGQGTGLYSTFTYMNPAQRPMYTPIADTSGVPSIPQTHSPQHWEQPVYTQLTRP
Method: To a reaction solution comprising 1× Protruding End Kinase buffer, 0.4 μmol/L of sense oligo or antisense oligo and 1 U of T4 Polynucleotide Kinase (manufactured by Toyobo Co., Ltd.) was added P^32 γATP followed by subjecting to a reaction at 37° C. for 1 hour. The sense oligo and the antisense oligo finishing each of their reactions were mixed, incubated at 99° C. for 10 seconds and gradually returned to room temperature during 1 hour to prepare a double-stranded DNA labeled with radioisotope (RI). The RI-labeled probe was used after purifying by PrbeQuant G-50 Micro Column.
as §1

B1: miR140-PSB probe (dsDNA)
DNA 1: CTGGACTGAGCCCCATTCATCGTCCTGCTGCT
DNA 2: AGCAGCAGGACGATGAATGGGGCTCAGTCCAG
[1]
  binding result: binds

B2: miR140-PSB-mut1 probe (dsDNA)
DNA 1: CTGGACTGAGCCCCAGGCATCGTCCTGCTGCT
DNA 2: AGCAGCAGGACGATGCCTGGGGCTCAGTCCAG
[2]
  binding result: no binding

B3: miR140-PSB-mut2 probe (dsDNA)
DNA 1: CTGGGTTGGGCCCCATTCATCGTCCTGCTGCT
DNA 2: AGCAGCAGGACGATGAATGGGGCCCAACCCAG
[3]
  binding result: binds

B4: miR140-PSB-mut3 probe (dsDNA)
DNA 1: CTGGGTTGGGCCCCAGGCATCGTCCTGCTGCT
DNA 2: AGCAGCAGGACGATGCCTGGGGCCCAACCCAG
[4]
  binding result: no binding

B5: miR-140-PSB: RI-labeled double-stranded DNA probe, SEQ ID Nos. 28/29, palindromic Sox9 binding sequence (Table 3: miR140-PSB) (nucleic acid)
chain 1: CTGGACTGAGCCCCATTCATCGTCCTGCTGCT
chain 2: AGCAGCAGGACGATGAATGGGGCTCAGTCCAG
modifications: DNA, backbone and methylation of C not given here; radioisotope-labeled double-stranded DNA probe, further chemistry not fully specified
[5]
  shift of the band: shift of the band was observed
[5]; rSox9 and further incubation with anti-Sox9 antibody
  supershift of the band: supershift of the band was observed

B6: miR-140-PSB-mut2: RI-labeled probe, SEQ ID Nos. 32/33, mutation in the left side of the palindromic Sox9 binding sequence (nucleic acid)
chain 1: CTGGGTTGGGCCCCATTCATCGTCCTGCTGCT
chain 2: AGCAGCAGGACGATGAATGGGGCCCAACCCAG
modifications: DNA, backbone and methylation of C not given here; radioisotope-labeled double-stranded DNA probe, further chemistry not fully specified
[5]
  shift of the band: shift of the band was observed

B7: miR-140-PSB-mut1: RI-labeled probe, SEQ ID Nos. 30/31, mutation in the right side of the palindromic Sox9 binding sequence (nucleic acid)
chain 1: CTGGACTGAGCCCCAGGCATCGTCCTGCTGCT
chain 2: AGCAGCAGGACGATGCCTGGGGCTCAGTCCAG
modifications: DNA, backbone and methylation of C not given here; radioisotope-labeled double-stranded DNA probe, further chemistry not fully specified
[5]
  shift of the band: shift of the band disappeared

B8: miR-140-PSB-mut3: RI-labeled probe, SEQ ID Nos. 34/35, mutation in both sides of the palindromic Sox9 binding sequence (nucleic acid)
chain 1: CTGGGTTGGGCCCCAGGCATCGTCCTGCTGCT
chain 2: AGCAGCAGGACGATGCCTGGGGCCCAACCCAG
modifications: DNA, backbone and methylation of C not given here; radioisotope-labeled double-stranded DNA probe, further chemistry not fully specified
[5]
  shift of the band: shift of the band disappeared
